Test results reported in US20250019438A1 (AstraZeneca / MedImmune, published 2025).

biological target: Biotinylated recombinant human CD3εδ (Acro Biosystems, CDD-H82W6) (human) (UniProt P07766); assay: Octet BLI, biotinylated CD3εδ on streptavidin sensors, 1:1 model
Sequence (P07766 23-126, stated change not applied, chain 1 of 2): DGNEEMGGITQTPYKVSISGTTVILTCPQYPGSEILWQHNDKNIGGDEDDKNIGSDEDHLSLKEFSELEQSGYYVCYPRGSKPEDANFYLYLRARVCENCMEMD
Sequence (P04234 22-105, stated change not applied, chain 2 of 2, further chain): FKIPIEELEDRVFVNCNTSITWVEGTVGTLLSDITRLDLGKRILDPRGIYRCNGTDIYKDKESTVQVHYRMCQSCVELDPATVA

| Kd [µM] | koff [s⁻¹] | kon [M⁻¹ s⁻¹] | Binder |
| --- | --- | --- | --- |
| 2.79 | 0.0198 | 7100 | EGFR-CD3 DuetMab with anti-CD3 variant AZ Vκ 17 + AZ VH E75 (bispecific antibody, part only; not given: anti-EGFR arm, constant regions, V domains shown, not shown: another chain or arm of the molecule; a dimerising Fc or GST; small tags and cut ends) VH: EVQLVESGGALVKPGGSLRLSCAASGFTFTEAWMHWVRQAPGKQLEWVAQIKDRSQTYATYYAESVKGRFTISRDDSKNTLYLQMNSLKTEDTAVYYCRGVYYANAPFDYWGQGTLVTVSS VL: DIVMTQSPLSLPVTPGEPASISCRSSQSLVHNTGNTYLSWYLQKPGQSPQSLIYKVSNRASGVPDRFSGSGSGTDFTLKISRVEAEDVGVYYCGQGTQAPFTFGSGTKVEIK |
| 5 | 0.0755 | 15100 | EGFR-CD3 DuetMab with anti-CD3 variant AZ Vκ 29 + AZ VH E82 (bispecific antibody, part only; not given: anti-EGFR arm, constant regions, V domains shown, not shown: another chain or arm of the molecule; a dimerising Fc or GST; small tags and cut ends) VH: EVQLVESGGALVKPGGSLRLSCAASGFTFTEAWMHWVRQAPGKQLEWVAQIKDRSQTYATYYAESVKGRFTISRDDSKNTLYLQMNSLKTEDTAVYYCRGVYYANTPFDYWGQGTLVTVSS VL: DIVMTQSPLSLPVTPGEPASISCRSSQSLVHNTGNTYLSWYLQKPGQSPQSLIYKVSNRASGVPDRFSGSGSGTDFTLKISRVEAEDVGVYYCGQGTQFPFTFGSGTKVEIK |
| 0.217 | 0.00605 | 27900 | EGFR-CD3 DuetMab with anti-CD3 variant AZ Vκ 26 + AZ VH R75 (bispecific antibody, part only; not given: anti-EGFR arm, constant regions, V domains shown, not shown: another chain or arm of the molecule; a dimerising Fc or GST; small tags and cut ends) VH: EVQLVESGGALVKPGGSLRLSCAASGFTFTRAWMHWVRQAPGKQLEWVAQIKDRSQTYATYYAESVKGRFTISRDDSKNTLYLQMNSLKTEDTAVYYCRGVYYANAPFDYWGQGTLVTVSS VL: DIVMTQSPLSLPVTPGEPASISCRSSQSLVHNTGNTYLSWYLQKPGQSPQSLIYKVSNRASGVPDRFSGSGSGTDFTLKISRVEAEDVGVYYCGQGTQAPFSFGSGTKVEIK |
| 0.712 | 0.0233 | 32700 | EGFR-CD3 DuetMab with anti-CD3 variant AZ Vκ 26 + AZ VH R79 (bispecific antibody, part only; not given: anti-EGFR arm, constant regions, V domains shown, not shown: another chain or arm of the molecule; a dimerising Fc or GST; small tags and cut ends) VH: EVQLVESGGALVKPGGSLRLSCAASGFTFTRAWMHWVRQAPGKQLEWVAQIKDRSQTYATYYAESVKGRFTISRDDSKNTLYLQMNSLKTEDTAVYYCRGVYYAVTPFDYWGQGTLVTVSS VL: DIVMTQSPLSLPVTPGEPASISCRSSQSLVHNTGNTYLSWYLQKPGQSPQSLIYKVSNRASGVPDRFSGSGSGTDFTLKISRVEAEDVGVYYCGQGTQAPFSFGSGTKVEIK |
| 0.853 | 0.00923 | 10800 | EGFR-CD3 DuetMab with anti-CD3 variant AZ Vκ 17 + AZ VH SN75 (bispecific antibody, part only; not given: anti-EGFR arm, constant regions, V domains shown, not shown: another chain or arm of the molecule; a dimerising Fc or GST; small tags and cut ends) VH: EVQLVESGGALVKPGGSLRLSCAASGFTFSNAWMHWVRQAPGKQLEWVAQIKDRSQTYATYYAESVKGRFTISRDDSKNTLYLQMNSLKTEDTAVYYCRGVYYANAPFDYWGQGTLVTVSS VL: DIVMTQSPLSLPVTPGEPASISCRSSQSLVHNTGNTYLSWYLQKPGQSPQSLIYKVSNRASGVPDRFSGSGSGTDFTLKISRVEAEDVGVYYCGQGTQAPFTFGSGTKVEIK |
| 4.61 | 0.033 | 7140 | EGFR-CD3 DuetMab with anti-CD3 variant AZ Vκ 17 + AZ VH E82 (bispecific antibody, part only; not given: anti-EGFR arm, constant regions, V domains shown, not shown: another chain or arm of the molecule; a dimerising Fc or GST; small tags and cut ends) VH: EVQLVESGGALVKPGGSLRLSCAASGFTFTEAWMHWVRQAPGKQLEWVAQIKDRSQTYATYYAESVKGRFTISRDDSKNTLYLQMNSLKTEDTAVYYCRGVYYANTPFDYWGQGTLVTVSS VL: DIVMTQSPLSLPVTPGEPASISCRSSQSLVHNTGNTYLSWYLQKPGQSPQSLIYKVSNRASGVPDRFSGSGSGTDFTLKISRVEAEDVGVYYCGQGTQAPFTFGSGTKVEIK |
| 4.58 | 0.118 | 25800 | EGFR-CD3 DuetMab with anti-CD3 variant AZ Vκ 29 + AZ VH E79 (bispecific antibody, part only; not given: anti-EGFR arm, constant regions, V domains shown, not shown: another chain or arm of the molecule; a dimerising Fc or GST; small tags and cut ends) VH: EVQLVESGGALVKPGGSLRLSCAASGFTFTEAWMHWVRQAPGKQLEWVAQIKDRSQTYATYYAESVKGRFTISRDDSKNTLYLQMNSLKTEDTAVYYCRGVYYAVTPFDYWGQGTLVTVSS VL: DIVMTQSPLSLPVTPGEPASISCRSSQSLVHNTGNTYLSWYLQKPGQSPQSLIYKVSNRASGVPDRFSGSGSGTDFTLKISRVEAEDVGVYYCGQGTQFPFTFGSGTKVEIK |
| 1.93 | 0.0361 | 18700 | EGFR-CD3 DuetMab with anti-CD3 variant AZ Vκ 26 + AZ VH SN79 (bispecific antibody, part only; not given: anti-EGFR arm, constant regions, V domains shown, not shown: another chain or arm of the molecule; a dimerising Fc or GST; small tags and cut ends) VH: EVQLVESGGALVKPGGSLRLSCAASGFTFSNAWMHWVRQAPGKQLEWVAQIKDRSQTYATYYAESVKGRFTISRDDSKNTLYLQMNSLKTEDTAVYYCRGVYYAVTPFDYWGQGTLVTVSS VL: DIVMTQSPLSLPVTPGEPASISCRSSQSLVHNTGNTYLSWYLQKPGQSPQSLIYKVSNRASGVPDRFSGSGSGTDFTLKISRVEAEDVGVYYCGQGTQAPFSFGSGTKVEIK |
| 2.67 | 0.114 | 42800 | EGFR-CD3 DuetMab with anti-CD3 variant AZ Vκ 29 + AZ VH SN79 (bispecific antibody, part only; not given: anti-EGFR arm, constant regions, V domains shown, not shown: another chain or arm of the molecule; a dimerising Fc or GST; small tags and cut ends) VH: EVQLVESGGALVKPGGSLRLSCAASGFTFSNAWMHWVRQAPGKQLEWVAQIKDRSQTYATYYAESVKGRFTISRDDSKNTLYLQMNSLKTEDTAVYYCRGVYYAVTPFDYWGQGTLVTVSS VL: DIVMTQSPLSLPVTPGEPASISCRSSQSLVHNTGNTYLSWYLQKPGQSPQSLIYKVSNRASGVPDRFSGSGSGTDFTLKISRVEAEDVGVYYCGQGTQFPFTFGSGTKVEIK |
| 0.266 | 0.00644 | 24200 | EGFR-CD3 DuetMab with anti-CD3 variant AZ Vκ 17 + AZ VH R75 (bispecific antibody, part only; not given: anti-EGFR arm, constant regions, V domains shown, not shown: another chain or arm of the molecule; a dimerising Fc or GST; small tags and cut ends) VH: EVQLVESGGALVKPGGSLRLSCAASGFTFTRAWMHWVRQAPGKQLEWVAQIKDRSQTYATYYAESVKGRFTISRDDSKNTLYLQMNSLKTEDTAVYYCRGVYYANAPFDYWGQGTLVTVSS VL: DIVMTQSPLSLPVTPGEPASISCRSSQSLVHNTGNTYLSWYLQKPGQSPQSLIYKVSNRASGVPDRFSGSGSGTDFTLKISRVEAEDVGVYYCGQGTQAPFTFGSGTKVEIK |
